Legend:
[1] = biological target: HLA-B*58:01; test: IEDB peptide-MHC binding, purified MHC/competitive/radioactivity; filed as Kd, often an IC50 or EC50 that approximates it; ≥ and ≤ were set here for values at or beyond the usual limits of such assays
[2] = biological target: HLA-B*57:01; test: as above
[3] = biological target: HLA-B*15:01; test: as above
[4] = biological target: HLA-A*02:01; test: IEDB peptide-MHC binding, purified MHC/competitive/fluorescence; ≥ and ≤ were set here for values at or beyond the usual limits of such assays
[5] = biological target: HLA-A*24:02; test: as above
[6] = biological target: HLA-A*32:01; test: IEDB peptide-MHC binding, purified MHC/competitive/radioactivity; filed as Kd, often an IC50 or EC50 that approximates it; ≥ and ≤ were set here for values at or beyond the usual limits of such assays
[7] = biological target: HLA-B*27:05; test: IEDB peptide-MHC binding, purified MHC/direct/fluorescence; filed as Kd, often an IC50 or EC50 that approximates it; ≥ and ≤ were set here for values at or beyond the usual limits of such assays
[8] = biological target: HLA-B*48:01; test: as above
[9] = biological target: HLA-B*53:01; test: IEDB peptide-MHC binding, purified MHC/competitive/radioactivity; filed as Kd, often an IC50 or EC50 that approximates it; ≥ and ≤ were set here for values at or beyond the usual limits of such assays
[10] = biological target: HLA-A*68:02; test: as above
[11] = biological target: HLA-A*11:01; test: as above
[12] = biological target: HLA-A*02:01; test: as above
[13] = biological target: HLA-A*31:01; test: as above
[14] = biological target: HLA-A*68:01; test: as above
[15] = biological target: HLA-B*35:01; test: as above
[16] = biological target: HLA-A*02:03; test: as above
[17] = biological target: HLA-A*33:01; test: as above
[18] = biological target: HLA-B*07:02; test: as above
[19] = biological target: HLA-A*02:06; test: as above
[20] = biological target: HLA-A*02:02; test: as above
[21] = biological target: HLA-A*03:01; test: as above
[22] = biological target: HLA-B*54:01; test: as above
[23] = biological target: HLA-B*51:01; test: as above
[24] = biological target: HLA-A*01:01; test: as above
[25] = biological target: HLA-A*30:02; test: as above
[26] = biological target: HLA-B*08:01; test: as above; conditions: source organism: Hepacivirus hominis
[27] = source organism: Dengue virus 4 Philippines/H241/1956
[28] = source organism: Dengue virus 1 Brazil/97-11/1997
[29] = source organism: Vaccinia virus WR
[30] = source organism: Dengue virus 4 Dominica/814669/1981
[31] = source organism: Dengue virus 2 Jamaica/1409/1983
[32] = source organism: Zaire ebolavirus
[33] = source organism: Mammarenavirus lassaense
[34] = source organism: Lassa virus Josiah
[35] = source organism: Sudan ebolavirus
[36] = source organism: Dengue virus 3 Martinique/1243/1999
[37] = source organism: Hepacivirus hominis

## KAIKILTGF
[1]; [27]
  Kd: 22.4 nM
[2]; [27]
  Kd: 66.7 nM

## LGFMNEDHW
[2]; [28]
  Kd: 26.2 nM

## KLRQIVAYF
[3]; [29]
  Kd: 7.59 nM

## LTSTWVMYGT
[1]; [30]
  Kd: 663 nM
[2]; [30]
  Kd: 2540 nM

## KATREAQKRA
[1]; [31]
  Kd: 10700 nM
[2]; [31]
  Kd: 847 nM

## IQAFEAGVD
[4]; [32]
  IC50: ≥ 210000 nM
[5]; [32]
  IC50: 32900 nM

## PATLFVWYFW
[1]; [28]
  Kd: 9290 nM
[6]; [28]
  Kd: 15500 nM
[2]; [28]
  Kd: 169 nM

## KRASPILRF
[7]; [33]
  Kd: 87 nM
[8]; [33]
  Kd: ≥ 20000 nM

## KQAKAPESK
[7]; [34]
  Kd: 704 nM
[8]; [34]
  Kd: ≥ 20000 nM

## GAAFSGVSW
[1]; [31]
  Kd: 126 nM
[2]; [31]
  Kd: 22.8 nM

## MTTTANWLW
[1]; [27]
  Kd: 1.05 nM
[9]; [27]
  Kd: 2.5 nM
[2]; [27]
  Kd: 1.62 nM

## MIKNLTQLF
[3]; source organism: Vaccinia virus Copenhagen
  Kd: 5.71 nM

## RLLIWAYLSK
[10]; [29]
  Kd: ≥ 40600 nM
[11]; [29]
  Kd: 0.114 nM
[12]; [29]
  Kd: 4990 nM
[13]; [29]
  Kd: 447 nM
[9]; [29]
  Kd: 10400 nM
[14]; [29]
  Kd: 1470 nM
[15]; [29]
  Kd: ≥ 69900 nM
[16]; [29]
  Kd: 17300 nM
[17]; [29]
  Kd: 4870 nM
[18]; [29]
  Kd: ≥ 69600 nM
[19]; [29]
  Kd: 14800 nM
[20]; [29]
  Kd: ≥ 42300 nM
[21]; [29]
  Kd: 0.159 nM
[22]; [29]
  Kd: 11300 nM
[23]; [29]
  Kd: ≥ 34000 nM

## VGVNTQETI
[5]; [35]
  IC50: 7560 nM

## AFSMPLGVV
[4]; [35]
  IC50: 8990 nM
[5]; [35]
  IC50: 2820 nM

## IWMAPSLTE
[5]; [32]
  IC50: 256 nM

## FIIKSSYVF
[3]; [29]
  Kd: 3.23 nM

## QIFEVYWYL
[10]; [29]
  Kd: 8.89 nM
[11]; [29]
  Kd: 67.3 nM
[13]; [29]
  Kd: 143 nM
[9]; [29]
  Kd: 1400 nM
[14]; [29]
  Kd: 873 nM
[15]; [29]
  Kd: 6500 nM
[16]; [29]
  Kd: 186 nM
[17]; [29]
  Kd: 775 nM
[18]; [29]
  Kd: 16100 nM
[19]; [29]
  Kd: 19.2 nM
[20]; [29]
  Kd: 1.12 nM
[21]; [29]
  Kd: 1060 nM
[22]; [29]
  Kd: ≥ 5000 nM
[23]; [29]
  Kd: 5540 nM

## QSSSMRKTDW
[1]; [36]
  Kd: 75.8 nM
[2]; [36]
  Kd: 151 nM

## PVVLTGGTG
[4]; source organism: Variola virus
  IC50: ≥ 167000 nM
[5]; source organism: Variola virus
  IC50: 69800 nM

## GSSKIRWIVE
[6]; [27]
  Kd: 2260 nM
[2]; [27]
  Kd: 868 nM

## FDAVLYYHM
[4]; [32]
  IC50: ≥ 309000 nM
[5]; [32]
  IC50: 12000 nM

## TLAAMPEEE
[5]; [32]
  IC50: 10000 nM

## NIREIEEHM
[3]; [29]
  Kd: 234 nM

## FVVDNVHTW
[1]; [30]
  Kd: 106 nM
[9]; [30]
  Kd: 8.45 nM

## GSSPIIEVKQ
[2]; [27]
  Kd: 17000 nM

## SINNIDPHF
[3]; [29]
  Kd: 12 nM

## VSSVNTTSKM
[1]; [27]
  Kd: 1450 nM
[2]; [27]
  Kd: 12100 nM

## RSLIGNEEF
[1]; [36]
  Kd: 15.4 nM
[6]; [36]
  Kd: 4650 nM

## MLAVWNRVW
[1]; [31]
  Kd: 113 nM
[2]; [31]
  Kd: 20.6 nM

## SASSMVNGVV
[10]; [31]
  Kd: 10.2 nM
[1]; [31]
  Kd: 2040 nM
[2]; [31]
  Kd: 227 nM

## FGSVGGLFTS
[1]; [30]
  Kd: 220 nM

## TVLGLGLSLK
[10]; [29]
  Kd: ≥ 69800 nM
[11]; [29]
  Kd: 1.61 nM
[12]; [29]
  Kd: ≥ 69400 nM
[13]; [29]
  Kd: 898 nM
[9]; [29]
  Kd: ≥ 69900 nM
[14]; [29]
  Kd: 73.6 nM
[15]; [29]
  Kd: ≥ 24000 nM
[16]; [29]
  Kd: ≥ 70400 nM
[17]; [29]
  Kd: 14400 nM
[18]; [29]
  Kd: ≥ 69600 nM
[19]; [29]
  Kd: ≥ 51200 nM
[20]; [29]
  Kd: ≥ 61300 nM
[21]; [29]
  Kd: 19.3 nM
[22]; [29]
  Kd: ≥ 69900 nM
[23]; [29]
  Kd: ≥ 61800 nM

## LSRNSTHEMY
[24]; [36]
  Kd: 291 nM
[3]; [36]
  Kd: 48.2 nM
[25]; [36]
  Kd: 32.2 nM

## MAILGDTAW
[1]; [31]
  Kd: 3.34 nM
[9]; [31]
  Kd: 9.79 nM
[15]; [31]
  Kd: 33.1 nM
[2]; [31]
  Kd: 22.6 nM

## KFRKSSFFV
[4]; [35]
  IC50: 7760 nM
[5]; [35]
  IC50: 449 nM

## FITDNVHTW
[1]; [31]
  Kd: 17.5 nM
[9]; [31]
  Kd: 88.7 nM

## ISSTPFAEYT
[1]; [27]
  Kd: 2050 nM

## TQVGTLALSL
[3]; [27]
  Kd: 57.2 nM

## LGKAVHQVF
[3]; [27]
  Kd: 477 nM

## AVLMLVAHY
[3]; [28]
  Kd: 51.2 nM
[25]; [28]
  Kd: 2.19 nM

## GTSADLTVEK
[11]; [36]
  Kd: 219 nM
[2]; [36]
  Kd: 3510 nM

## ANAGQFLSF
[5]; [32]
  IC50: 578 nM

## RTSWALCEAL
[2]; [36]
  Kd: 1710 nM

## RNWAHSSL
[10]; [37]
  Kd: ≥ 69800 nM
[11]; [37]
  Kd: ≥ 87000 nM
[12]; [37]
  Kd: ≥ 69400 nM
[13]; [37]
  Kd: 17800 nM
[26]
  Kd: ≥ 67500 nM
[9]; [37]
  Kd: ≥ 49500 nM
[14]; [37]
  Kd: ≥ 87900 nM
[15]; [37]
  Kd: ≥ 87800 nM
[16]; [37]
  Kd: ≥ 87700 nM
[24]; [37]
  Kd: 2200 nM
[17]; [37]
  Kd: ≥ 87600 nM
[18]; [37]
  Kd: ≥ 57400 nM
[19]; [37]
  Kd: ≥ 58300 nM
[20]; [37]
  Kd: ≥ 70000 nM
[21]; [37]
  Kd: ≥ 87300 nM
[22]; [37]
  Kd: ≥ 87700 nM
[23]; [37]
  Kd: ≥ 51200 nM

## LSIPPTAGI
[1]; [27]
  Kd: 24.1 nM

## KLHSGKDVF
[3]; [28]
  Kd: 4.82 nM

Source: the Immune Epitope Database (IEDB)
